Experimental data: the Immune Epitope Database (IEDB)
Blank lines part the entries; values can stand above or below the sequence they belong to.

Tests used:
HLA-A*11:01 [1] = assay: IEDB peptide-MHC binding, purified MHC/direct/fluorescence; filed as Kd, often an IC50 or EC50 that approximates it; ≥ and ≤ were set here for values at or beyond the usual limits of such assays
HLA-A*02:01 = assay: as above
HLA-B*15:01 [2] = assay: as above
HLA-A*69:01 [3] = assay: as above
HLA-B*08:01 = assay: as above
HLA-B*27:05 = assay: as above
HLA-A*01:01 [4] = assay: as above
HLA-B*58:01 = assay: as above
HLA-B*07:02 [5] = assay: as above
HLA-A*26:01 = assay: as above
HLA-A*03:01 [6] = assay: as above
HLA-A*30:01 = assay: as above
HLA-B*44:02 = assay: as above; settings: source organism: Giardia lamblia ATCC 50803
HLA-B*40:01 = assay: as above
HLA-B*46:01 = assay: as above
HLA-B*18:01 [7] = assay: as above; settings: source organism: Brucella abortus
HLA-A*31:01 [8] = assay: as above
HLA-B*15:09 = assay: as above; settings: source organism: Brucella suis ATCC 23445
HLA-B*48:01 = assay: as above
HLA-B*38:01 = assay: as above
HLA-A*69:01 [9] = assay: IEDB peptide-MHC binding, purified MHC/competitive/fluorescence; filed as Kd, often an IC50 or EC50 that approximates it; ≥ and ≤ were set here for values at or beyond the usual limits of such assays; settings: source organism: Brucella melitensis bv. 1 str. Rev.1
HLA-B*15:17 = assay: as above
HLA-A*02:06 = assay: as above; settings: source organism: Brucella melitensis bv. 1 str. Rev.1
HLA-B*57:01 [10] = assay: as above; settings: source organism: Brucella melitensis bv. 1 str. Rev.1
HLA-B*39:01 = assay: IEDB peptide-MHC binding, purified MHC/direct/fluorescence; filed as Kd, often an IC50 or EC50 that approximates it; ≥ and ≤ were set here for values at or beyond the usual limits of such assays; settings: source organism: Camelpox virus M-96
HLA-B*08:02 = assay: as above; settings: source organism: Variola virus
HLA-B*08:03 = assay: as above; settings: source organism: Variola virus
HLA-A*68:02 = assay: as above; settings: source organism: Camelpox virus M-96
HLA-B*57:01 [11] = assay: as above; settings: source organism: Camelpox virus M-96
HLA-B*15:01 [12] = assay: IEDB peptide-MHC binding, purified MHC/competitive/fluorescence; filed as Kd, often an IC50 or EC50 that approximates it; ≥ and ≤ were set here for values at or beyond the usual limits of such assays; settings: source organism: Vaccinia virus WR
HLA-B*18:01 [13] = assay: as above; settings: source organism: Vaccinia virus WR
HLA-A*01:01 [14] = assay: as above; settings: source organism: Vaccinia virus WR
HLA-B*07:02 [15] = assay: as above; settings: source organism: Vaccinia virus WR
HLA-B*35:01 = assay: as above; settings: source organism: Vaccinia virus WR
HLA-A*26:02 = assay: as above; settings: source organism: Vaccinia virus WR
HLA-A*11:01 [16] = assay: IEDB peptide-MHC binding, purified MHC/competitive/fluorescence; ≥ and ≤ were set here for values at or beyond the usual limits of such assays; settings: source organism: Variola virus
HLA-B*45:06 = assay: IEDB peptide-MHC binding, purified MHC/competitive/fluorescence; filed as Kd, often an IC50 or EC50 that approximates it; ≥ and ≤ were set here for values at or beyond the usual limits of such assays; settings: source organism: Escherichia coli F11
HLA-A*68:23 = assay: as above; settings: source organism: Escherichia coli F11
HLA-B*15:42 = assay: as above; settings: source organism: Escherichia coli F11
HLA-B*83:01 = assay: as above; settings: source organism: Escherichia coli F11
HLA-A*31:01 [17] = assay: as above; settings: source organism: Escherichia coli F11
HLA-A*03:01 [18] = assay: as above; settings: source organism: Escherichia coli F11
HLA-A*32:15 = assay: as above; settings: source organism: Escherichia coli F11
HLA-A*24:03 = assay: IEDB peptide-MHC binding, purified MHC/direct/fluorescence; filed as Kd, often an IC50 or EC50 that approximates it; ≥ and ≤ were set here for values at or beyond the usual limits of such assays; settings: source organism: Corynebacterium glutamicum
[19] = source organism: Giardia lamblia ATCC 50803
[20] = source organism: Brucella abortus
[21] = source organism: Brucella suis ATCC 23445
[22] = source organism: Camelpox virus M-96
[23] = source organism: Corynebacterium glutamicum

Sequence: ASSWAPTQK
Kd (HLA-A*11:01 [1]; [19]): 0.0175 µM
Kd (HLA-A*02:01; [19]): ≥ 20 µM
Kd (HLA-B*15:01 [2]; [19]): ≥ 20 µM
Kd (HLA-A*69:01 [3]; [19]): ≥ 20 µM
Kd (HLA-B*08:01; [19]): ≥ 20 µM
Kd (HLA-B*27:05; [19]): ≥ 20 µM
Kd (HLA-A*01:01 [4]; [19]): ≥ 20 µM
Kd (HLA-B*58:01; [19]): ≥ 20 µM
Kd (HLA-B*07:02 [5]; [19]): ≥ 20 µM
Kd (HLA-A*26:01; [19]): ≥ 20 µM
Kd (HLA-A*03:01 [6]; [19]): 0.51 µM
Kd (HLA-A*30:01; [19]): 4.14 µM
Kd (HLA-B*44:02): ≥ 20 µM
Kd (HLA-B*40:01; [19]): ≥ 20 µM

Sequence: FSDVSHWWQ
Kd (HLA-A*11:01 [1]; [20]): ≥ 20 µM
Kd (HLA-A*02:01; [20]): ≥ 20 µM
Kd (HLA-B*15:01 [2]; [20]): ≥ 20 µM
Kd (HLA-B*46:01; [20]): ≥ 20 µM
Kd (HLA-B*08:01; [21]): ≥ 20 µM
Kd (HLA-B*27:05; [20]): ≥ 20 µM
Kd (HLA-B*18:01 [7]): ≥ 20 µM
Kd (HLA-A*01:01 [4]; [20]): 0.404 µM
Kd (HLA-B*58:01; [20]): 2.09 µM
Kd (HLA-B*07:02 [5]; [20]): ≥ 20 µM
Kd (HLA-A*26:01; [21]): ≥ 20 µM
Kd (HLA-A*31:01 [8]; [20]): ≥ 20 µM
Kd (HLA-B*15:09): ≥ 20 µM
Kd (HLA-A*03:01 [6]; [20]): ≥ 20 µM
Kd (HLA-B*40:01; [20]): ≥ 20 µM
Kd (HLA-B*48:01; [20]): ≥ 20 µM
Kd (HLA-B*38:01; [21]): ≥ 20 µM
Kd (HLA-A*69:01 [9]): ≥ 20 µM
Kd (HLA-B*15:17; source organism: Brucella melitensis bv. 1 str. Rev.1): ≥ 20 µM
Kd (HLA-A*02:06): ≥ 20 µM
Kd (HLA-B*57:01 [10]): ≥ 20 µM

Sequence: IHIPGDTLF
Kd (HLA-A*02:01; [22]): ≥ 20 µM
Kd (HLA-A*69:01 [3]; [22]): ≥ 20 µM
Kd (HLA-B*39:01): ≥ 20 µM
Kd (HLA-B*08:02): ≥ 20 µM
Kd (HLA-B*46:01; [22]): ≥ 20 µM
Kd (HLA-B*08:03): ≥ 20 µM
Kd (HLA-B*08:01; source organism: Variola virus): ≥ 20 µM
Kd (HLA-B*27:05; [22]): ≥ 20 µM
Kd (HLA-B*58:01; [22]): ≥ 20 µM
Kd (HLA-A*26:01; source organism: Variola virus): ≥ 20 µM
Kd (HLA-A*68:02): ≥ 20 µM
Kd (HLA-B*57:01 [11]): ≥ 20 µM
Kd (HLA-B*40:01; [22]): ≥ 20 µM
Kd (HLA-B*48:01; [22]): ≥ 20 µM
Kd (HLA-B*38:01; source organism: Variola virus): 0.392 µM
Kd (HLA-B*15:01 [12]): ≥ 20 µM
Kd (HLA-B*18:01 [13]): ≥ 20 µM
Kd (HLA-A*01:01 [14]): ≥ 20 µM
Kd (HLA-B*07:02 [15]): ≥ 5 µM
Kd (HLA-B*15:17; source organism: Vaccinia virus WR): ≥ 20 µM
Kd (HLA-B*35:01): 0.366 µM
Kd (HLA-A*26:02): ≥ 20 µM
IC50 (HLA-A*11:01 [16]): ≥ 152 µM

Kd (HLA-B*45:06): ≥ 5 µM
Kd (HLA-A*68:23): 0.0002 µM
Kd (HLA-B*15:42): ≥ 5 µM
Kd (HLA-B*83:01): ≥ 5 µM
Kd (HLA-A*31:01 [17]): 0.0183 µM
Kd (HLA-A*03:01 [18]): 0.078 µM
Kd (HLA-A*32:15): 0.824 µM
Sequence: MTYSHHACR

Kd (HLA-A*11:01 [1]; [23]): ≥ 20 µM
Kd (HLA-A*02:01; [23]): ≥ 20 µM
Kd (HLA-B*15:01 [2]; [23]): ≥ 20 µM
Kd (HLA-A*69:01 [3]; [23]): ≥ 20 µM
Kd (HLA-B*08:01; [23]): ≥ 20 µM
Kd (HLA-A*24:03): ≥ 20 µM
Kd (HLA-B*27:05; [23]): ≥ 20 µM
Kd (HLA-A*01:01 [4]; [23]): ≥ 20 µM
Kd (HLA-B*58:01; [23]): ≥ 20 µM
Kd (HLA-A*26:01; [23]): ≥ 20 µM
Kd (HLA-A*31:01 [8]; [23]): ≥ 20 µM
Kd (HLA-A*03:01 [6]; [23]): ≥ 20 µM
Kd (HLA-A*30:01; [23]): 4.84 µM
Kd (HLA-B*40:01; [23]): ≥ 20 µM
Sequence: VHDREGNEV
